Patent US12545899B2, “Luciferase enzymes for use with thermostable luciferins in bioluminescent assays” (Promega Corporation, priority 2018, dated 2026)

Experiments:
Type in all cases: biochemical
[1] = Luminescence at 1 mM D/L-luciferin (Table 11); settings: 1 mM substrate, 1 mM ATP
Description: (§1) Tables 10 and 11 include representative results of kinetic analysis of the thermostable variants with D/L luciferin, CS0333, and CS0280. […] MK0135 and MK0137 have amino acid substitutions that improve thermostability relative to MK0133 and MK0134, respectively, while retaining activity on the luciferin analogs CS0333 and CS0280.

[2] = Luminescence at 1 mM CS0333 (Table 11); settings: 1 mM substrate, 1 mM ATP
Description: as §1

[3] = Luminescence at 1 mM CS0280 (Table 11); settings: 1 mM substrate, 1 mM ATP
Description: as §1

[4] = Kinetic analysis of thermostable variants with D/L-luciferin (Tables 13, 14); settings: 2 mM ATP
[5] = Kinetic analysis of thermostable variants with CS0333 (Tables 13, 14); settings: 2 mM ATP
[6] = Kinetic analysis of thermostable variants with CS0280 (Tables 13, 14); settings: 2 mM ATP

Molecule	Vmax (RLU) D/L-luciferin BrightGlo Buffer [1]	Vmax (RLU) D/L-luciferin Detection Reagent Buffer [1]	Vmax (RLU) CS0333 BrightGlo Buffer [2]	Vmax (RLU) CS0333 Detection Reagent Buffer [2]	Vmax (RLU) CS0280 BrightGlo Buffer [3]	Vmax (RLU) CS0280 Detection Reagent Buffer [3]	Km ([4]; BrightGlo Buffer) [µM]	Vmax (RLU) ([4]; BrightGlo Buffer)	Km ([4]; Detection Reagent Buffer) [µM]	Vmax (RLU) ([4]; Detection Reagent Buffer)	Km ([5]; BrightGlo Buffer) [µM]	Vmax (RLU) ([5]; BrightGlo Buffer)	Km ([5]; Detection Reagent Buffer) [µM]	Vmax (RLU) ([5]; Detection Reagent Buffer)	Km ([6]; BrightGlo Buffer) [µM]	Vmax (RLU) ([6]; BrightGlo Buffer)	Km ([6]; Detection Reagent Buffer) [µM]	Vmax (RLU) ([6]; Detection Reagent Buffer)
MK0156: SEQ ID NO: 121; H244W+S193A+N228D+L305F+S306P+I109V+C38R+F55I+Y108F+A316W+Y339M+T342S+V348I+C257R+T289S+S313T+K353R (protein) MADKNILYGPEPFYPLEDGTAGEQMFDALSRYAAIPGRIALTNAHTKENVLYEEILKLSCRLAESFKKYGLKQNDTIAVCSENSLQFFLPVIASLYLGIIVAPVNDKFVERELIHSLGIVKPRIVFCSKNTFQKVLNVKSKLKSIETIIILDLNEDLGGYQCLNNFISQNSDSNLDVKKFKPYSFNRDDQVAAIMFSSGTTGLPKGVMLTHKNIVARFSIAKDPTFGDAINPTSAILTVIPFHWGFGMMTTLGYFTCGFRVVLMHTFEEKLFLQSLQDYKVESALLVPSLMAFLAKSALVEKYDFPHLKEIASGGWPLSKEIGEMVKKRFKLNFVRQGMGLSETTSAILITPRGDAKPGSTGKIVPLHAVKVVDPTTGKILGPNEPGELYFKGPMIMKGYYNNEEATKAIIDNDGWLRSGDIAYYDNDGHFYIVGRRKSLIKYKGYQVAPAEIEGILLQHPYIVDAGVTGIPDEAAGELPAAGVVVQTGKYLNEQIVQDYVASQVSTAKWLRGGVKFLDEIPKGSTGKIDRKVLRQMLEKHTNGHHHHHHHH	796,344 RLU	173,238 RLU	828,634 RLU	377,642 RLU	753,523 RLU	16,392 RLU	0.0613	1,244,361 RLU	0.373	144,242 RLU	7.16	793,473 RLU	116	174,991 RLU	9.12	378,264 RLU	1210	21,620 RLU
MK0157: SEQ ID NO: 122; H244W+S193A+N228D+L305F+S306P+I109V+C38R+F55I+Y108F+A316W+Y339M+T342S+V348I+T284A+T289S+K353R+D435G+L437R (protein) MADKNILYGPEPFYPLEDGTAGEQMFDALSRYAAIPGRIALTNAHTKENVLYEEILKLSCRLAESFKKYGLKQNDTIAVCSENSLQFFLPVIASLYLGIIVAPVNDKFVERELIHSLGIVKPRIVFCSKNTFQKVLNVKSKLKSIETIIILDLNEDLGGYQCLNNFISQNSDSNLDVKKFKPYSFNRDDQVAAIMFSSGTTGLPKGVMLTHKNIVARFSIAKDPTFGDAINPTSAILTVIPFHWGFGMMTTLGYFTRGFRVVLMHTFEEKLFLQSLQDYKVESALLVPTLMAFLAKSALVEKYDFPHLKEIATGGWPLSKEIGEMVKKRFKLNFVRQGMGLSETTSAILITPRGDAKPGSTGKIVPLHAVKVVDPTTGKILGPNEPGELYFKGPMIMKGYYNNEEATKAIIDNDGWLRSGDIAYYDNDGHFYIVGRLKSLIKYKGYQVAPAEIEGILLQHPYIVDAGVTGIPDEAAGELPAAGVVVQTGKYLNEQIVQDYVASQVSTAKWLRGGVKFLDEIPKGSTGKIDRKVLRQMLEKHTNGHHHHHHHH	573,187 RLU	75,012 RLU	4,827,260 RLU	3,810,820 RLU	3,598,730 RLU	159,336 RLU	0.1	590,903 RLU	0.27	32,485 RLU	4.51	2,835,770 RLU	18.7	515,775 RLU	4.49	951,258 RLU	631	87,011 RLU
